Source: PMC11672532

Biological target: c-Met ((A549 lung cancer cells)) (UniProt P08581)
Assay: flow cytometry on cells
Settings: 5' and 3' cholesterol on ASO strand; Intact A549 or HeLa cells, FAM-labeled DNA, flow cytometry (30 min in Fig S8); binding buffer and temperature not given in the material

Sequence of c-Met ((A549 lung cancer cells)) (P08581 25-1390): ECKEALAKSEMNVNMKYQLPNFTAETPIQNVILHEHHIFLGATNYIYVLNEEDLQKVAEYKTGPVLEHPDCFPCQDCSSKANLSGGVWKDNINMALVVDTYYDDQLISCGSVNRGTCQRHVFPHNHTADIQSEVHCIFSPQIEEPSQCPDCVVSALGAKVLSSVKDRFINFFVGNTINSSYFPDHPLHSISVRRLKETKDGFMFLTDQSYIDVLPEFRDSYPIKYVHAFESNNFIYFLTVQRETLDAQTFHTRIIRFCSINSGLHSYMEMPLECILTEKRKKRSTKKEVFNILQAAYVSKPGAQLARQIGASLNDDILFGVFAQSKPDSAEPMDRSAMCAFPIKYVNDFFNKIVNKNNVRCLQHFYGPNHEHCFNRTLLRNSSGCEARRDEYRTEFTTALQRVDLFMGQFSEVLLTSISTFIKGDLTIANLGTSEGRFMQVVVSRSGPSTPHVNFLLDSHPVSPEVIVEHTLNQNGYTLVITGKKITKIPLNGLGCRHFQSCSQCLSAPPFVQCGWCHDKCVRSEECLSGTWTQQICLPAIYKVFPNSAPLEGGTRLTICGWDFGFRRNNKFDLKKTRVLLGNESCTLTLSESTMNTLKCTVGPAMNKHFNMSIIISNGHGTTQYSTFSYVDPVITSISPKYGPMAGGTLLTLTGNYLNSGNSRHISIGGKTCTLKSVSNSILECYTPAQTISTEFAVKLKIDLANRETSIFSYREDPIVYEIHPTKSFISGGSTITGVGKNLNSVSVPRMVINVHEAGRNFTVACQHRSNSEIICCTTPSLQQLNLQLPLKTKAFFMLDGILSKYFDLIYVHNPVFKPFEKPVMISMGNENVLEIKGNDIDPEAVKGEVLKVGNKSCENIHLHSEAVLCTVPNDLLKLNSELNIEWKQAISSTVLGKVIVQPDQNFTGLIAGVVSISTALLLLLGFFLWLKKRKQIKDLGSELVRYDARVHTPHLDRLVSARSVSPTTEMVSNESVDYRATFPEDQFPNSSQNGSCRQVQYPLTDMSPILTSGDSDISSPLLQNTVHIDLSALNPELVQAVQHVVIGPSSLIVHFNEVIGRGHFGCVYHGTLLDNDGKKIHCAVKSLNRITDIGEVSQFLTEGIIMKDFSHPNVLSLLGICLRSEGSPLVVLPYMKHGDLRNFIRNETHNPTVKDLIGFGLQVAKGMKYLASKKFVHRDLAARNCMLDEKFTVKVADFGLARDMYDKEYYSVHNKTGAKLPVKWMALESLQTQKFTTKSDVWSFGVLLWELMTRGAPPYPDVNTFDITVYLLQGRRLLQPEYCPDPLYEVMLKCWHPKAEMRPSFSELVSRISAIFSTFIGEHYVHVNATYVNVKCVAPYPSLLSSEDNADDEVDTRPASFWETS

For “TGGATGGTAGCTCGGTCGGGGTGGGTGGGTTGGCAAGTCT / GGTGTCACAGGCGGGACCCCCGACCGA / GTCCCGCCTGTGACACCTCCCGCCTGTGACATGCATTTTTTTTCCCGCCTGTGACATGCATTGTCCCGCCTGTGACACC / CAACCCACCCGGTGTCACAGGCGGGAC [NT-Ch2-Apt (DNA nanotweezer)]”, which binding signal (fold (A549 / HeLa fluorescence)) is on record?
Its binding signal (fold (A549 / HeLa fluorescence)) is 2.5.
